These results are taken from the supplement of paper PMC9942255.

The data set relates to Bacillus subtilis DB104 (SP-AmyQ fusion secretion). Nature of the data set: AmyQ secretion efficiency, weighted average sort bin (1 = best secretion, 10 = worst) (bin number (weighted average, 1-10)); higher = lower secretion efficiency. The essentials: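 In this assay, the secretion score is defined as the average bin number weighted by read frequency, normalised to beads per bin, with low-abundance sequences not counted. B. subtilis DB104 cells expressing mature AmyQ behind designed signal peptides (amyE-integrated) were enclosed with fluorescein-starch in ~65 nL alginate beads at about 0.3 cells per bead. Beads grew about 13 h at room temperature, were stained with nile red, and occupied beads went into 10 equally populated green/red fluorescence ratio bins by large-particle flow cytometry, whose amplicons were Illumina-sequenced.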

MKKRITYSLLALLAVVAFAFLTDSSKAKAAEA gave an AmyQ secretion efficiency of 3.06.

As for MKKRITYSLLALLAVVAFAFTDSSAAKAAEA, the AmyQ secretion efficiency was 2.68.

Regarding MKKRITYSLLALLAVVAFAFTDSSKAKAAEE, the AmyQ secretion efficiency amounted to 2.71.

MKKRITYSLLALLAVVAFAFTDSSKAKAASA returned an AmyQ secretion efficiency of 2.18.

MKKRITYSLLALLAVVAFAFTDSSKAKKAEA yielded an AmyQ secretion efficiency of 4.79.

The sequence MKKRITYSLLALLAVVAFAFTDSSKSKAAEA showed an AmyQ secretion efficiency of 3.09.

For MKKRITYSLLALLAVVAFAFTDSSKTKAAEA, the AmyQ secretion efficiency is 4.

As for MKKRITYSLLALLAVVAFAFTRSSKAKAAEA, the AmyQ secretion efficiency was found to be 3.67.

Consider MKKRITYSLLALLAVVATDSSKAKAAEA, for which the AmyQ secretion efficiency was 2.87.

As for MKKRITYSLRRLLAVVAFAFTDSSKAKAAEA, the AmyQ secretion efficiency came out at 5.28.

The sequence MKKRITYSTSYQQTRVAFAFTDSSKAKAAEA registered an AmyQ secretion efficiency of 6.55.

Sequence MKKRKCLLFLTTIALILSLSTNAFAKNT returned an AmyQ secretion efficiency of 1.8.

Consider MKKRKITIAMLILAGIALFVFISPLKSHKT, for which the AmyQ secretion efficiency amounted to 6.94.

In turn, MKKRKKKFFGPIILAFILFAGAIAIPS had an AmyQ secretion efficiency of 6.45.

As for MKKRKKKSLLALLAVVAFAFTDSSKAKAAEA, the AmyQ secretion efficiency turned out to be 2.95.

Sequence MKKRKKKVSSLFISSAVLLSILLPSGQAHAQSA showed an AmyQ secretion efficiency of 1.03.

Regarding MKKRKQRPRLLSAASLAFFAMSGSAQAAAY, the AmyQ secretion efficiency was determined as 6.55.

MKKRKRKILLSSALSFGMLISAVPALAAGT had an AmyQ secretion efficiency of 3.32.

Sequence MKKRKRKTLVVLFTIVTFGLVSPPAALMADKP registered an AmyQ secretion efficiency of 2.34.

Regarding MKKRKRRFLLVSFVLFFALSTGITGVQAAPA, the AmyQ secretion efficiency came to 2.95.

Turning to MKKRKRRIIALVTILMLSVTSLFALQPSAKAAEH, the AmyQ secretion efficiency was determined as 2.06.

MKKRKRRNFKRFIAAFLVLALMIDVLAKST yielded an AmyQ secretion efficiency of 7.65.

The sequence MKKRKRRNFKRFIAAFLVLALMILSLVPADVLAKST showed an AmyQ secretion efficiency of 2.47.

As to MKKRKRRNFKRFIAAFLVLALMIRRVPARVLAKST, the AmyQ secretion efficiency amounted to 6.23.

Sequence MKKRKRRNFKRFIAAFLVLALMISGVPADVLAKST registered an AmyQ secretion efficiency of 2.12.

MKKRKRRNFKRFIAAFLVLALMISLVPADALAKST registered an AmyQ secretion efficiency of 1.92.

Consider MKKRKRRNFKRFIAAFLVLALMISLVPADCLAKST, for which the AmyQ secretion efficiency was determined as 3.04.

Consider MKKRKRRNFKRFIAAFLVLALMISLVPADFLAKST, for which the AmyQ secretion efficiency amounted to 4.42.

Consider MKKRKRRNFKRFIAAFLVLALMISLVPADGLAKST, for which the AmyQ secretion efficiency worked out at 2.45.

Sequence MKKRKRRNFKRFIAAFLVLALMISLVPADILAKST showed an AmyQ secretion efficiency of 1.87.

MKKRKRRNFKRFIAAFLVLALMISLVPADKLAKST returned an AmyQ secretion efficiency of 4.89.

Turning to MKKRKRRNFKRFIAAFLVLALMISLVPADMLAKST, the AmyQ secretion efficiency amounted to 1.76.

The sequence MKKRKRRNFKRFIAAFLVLALMISLVPADSLAKST came in with an AmyQ secretion efficiency of 2.3.

Sequence MKKRKRRNFKRFIAAFLVLALMISLVPADTLAKST returned an AmyQ secretion efficiency of 1.68.

Sequence MKKRKRRNFKRFIAAFLVLALMISLVPADVLAAKR came in with an AmyQ secretion efficiency of 5.17.

MKKRKRRNFKRFIAAFLVLALMISLVPADVLAEED: the AmyQ secretion efficiency was found to be 3.75.

As to MKKRKRRNFKRFIAAFLVLALMISLVPADVLAKRK, the AmyQ secretion efficiency came out at 3.6.

MKKRKRRNFKRFIAAFLVLALMISLVPADVLGKST yielded an AmyQ secretion efficiency of 3.14.

MKKRKRRNFKRFIAAFLVLALMISLVPADVLKKST had an AmyQ secretion efficiency of 6.16.

With MKKRKRRNFKRFIAAFLVLALMISLVPDVLAKST, the AmyQ secretion efficiency turned out to be 3.69.

On to MKKRKRRNFKRQGTQYKGLALMISLVPADVLAKST, for which the AmyQ secretion efficiency worked out at 7.46.

MKKRKRRVSALTPSTTLAITAKAKEL had an AmyQ secretion efficiency of 6.69.

For the sequence MKKRKRRVVLVLSIAGIGGFSVHAASS, the AmyQ secretion efficiency was 7.17.

As for MKKRKVLLSALLLLLFAFEPSASGKKL, the AmyQ secretion efficiency was 2.85.

On to MKKRKVLMAFIICLSLILSVLAAPPSGAKAESV, for which the AmyQ secretion efficiency was determined as 1.28.

In turn, MKKRKVLTGSVLSLGLLVSASPAFATSP displayed an AmyQ secretion efficiency of 1.37.

MKKRKVMLATALFLGLTPAGANAADL registered an AmyQ secretion efficiency of 4.31.

With MKKRLIAPKLLSAASLAFFAMSGSAQAAAY, the AmyQ secretion efficiency is 3.27.

On to MKKRLIAPMFSSLLSAASLAFFAMSGSAQAAAY, for which the AmyQ secretion efficiency is 3.7.

MKKRLIAPMLKRAASLAFFAMSGSAQAAAY yielded an AmyQ secretion efficiency of 6.4.

In the case of MKKRLIAPMLKRKKRRAFFAMSGSAQAAAY, the AmyQ secretion efficiency was determined as 7.88.

Regarding MKKRLIAPMLKRRKSLAFFAMSGSAQAAAY, the AmyQ secretion efficiency is 7.31.

As for MKKRLIAPMLLIAAILAFFAMSGSAQAAAY, the AmyQ secretion efficiency was 2.47.

For “MKKRLIAPMLLSAASLAFFAALIFILLLTFMSGSAQAAAY”, the AmyQ secretion efficiency came out at 3.37.

MKKRLIAPMLLSAASLAFFAEEEEDEAQAAAY gave an AmyQ secretion efficiency of 3.9.

MKKRLIAPMLLSAASLAFFAEEESAQAAAY yielded an AmyQ secretion efficiency of 2.27.

Sequence MKKRLIAPMLLSAASLAFFAKRKSAQAAAY gave an AmyQ secretion efficiency of 7.88.

Sequence MKKRLIAPMLLSAASLAFFAMAQAAAY gave an AmyQ secretion efficiency of 6.11.

Consider MKKRLIAPMLLSAASLAFFAMFIIGSTAQAAAY, for which the AmyQ secretion efficiency amounted to 4.67.

With MKKRLIAPMLLSAASLAFFAMSGSAQAAAE, the AmyQ secretion efficiency is 2.56.

In turn, MKKRLIAPMLLSAASLAFFAMSGSAQAAAR yielded an AmyQ secretion efficiency of 4.69.

Take MKKRLIAPMLLSAASLAFFAMSGSAQAAEE: the AmyQ secretion efficiency worked out at 2.23.

Consider MKKRLIAPMLLSAASLAFFAMSGSAQAARR, for which the AmyQ secretion efficiency was determined as 6.96.

Consider MKKRLIAPMLLSAASLAFFAMSGSAQAEED, for which the AmyQ secretion efficiency is 2.35.

For MKKRLIAPMLLSAASLAFFAMSGSAQARKK, the AmyQ secretion efficiency was 5.79.

MKKRLIAPMLLSAASLAFFAMSGSAQCAAY returned an AmyQ secretion efficiency of 6.

Turning to MKKRLIAPMLLSAASLAFFAMSGSAQDAAY, the AmyQ secretion efficiency turned out to be 6.76.

For the sequence MKKRLIAPMLLSAASLAFFAMSGSAQEAAY, the AmyQ secretion efficiency came out at 6.78.

In turn, MKKRLIAPMLLSAASLAFFAMSGSAQFAAY registered an AmyQ secretion efficiency of 6.43.

In the case of MKKRLIAPMLLSAASLAFFAMSGSAQGAAY, the AmyQ secretion efficiency was found to be 4.34.

Regarding MKKRLIAPMLLSAASLAFFAMSGSAQHAAY, the AmyQ secretion efficiency amounted to 7.18.

For MKKRLIAPMLLSAASLAFFAMSGSAQIAAY, the AmyQ secretion efficiency was 8.39.

In the case of MKKRLIAPMLLSAASLAFFAMSGSAQKAAY, the AmyQ secretion efficiency worked out at 6.67.

MKKRLIAPMLLSAASLAFFAMSGSAQLAAY had an AmyQ secretion efficiency of 6.99.

As for MKKRLIAPMLLSAASLAFFAMSGSAQMAAY, the AmyQ secretion efficiency amounted to 6.46.

With MKKRLIAPMLLSAASLAFFAMSGSAQNAAY, the AmyQ secretion efficiency was determined as 8.43.

MKKRLIAPMLLSAASLAFFAMSGSAQPAAY: the AmyQ secretion efficiency turned out to be 5.92.

MKKRLIAPMLLSAASLAFFAMSGSAQQAAY returned an AmyQ secretion efficiency of 8.53.

Sequence MKKRLIAPMLLSAASLAFFAMSGSAQRAAY had an AmyQ secretion efficiency of 6.9.

Turning to MKKRLIAPMLLSAASLAFFAMSGSAQSAAY, the AmyQ secretion efficiency turned out to be 5.28.

MKKRLIAPMLLSAASLAFFAMSGSAQTAAY returned an AmyQ secretion efficiency of 7.42.

MKKRLIAPMLLSAASLAFFAMSGSAQVAAY had an AmyQ secretion efficiency of 5.79.

For the sequence MKKRLIAPMLLSAASLAFFAMSGSAQWAAY, the AmyQ secretion efficiency was found to be 6.21.

Consider MKKRLIAPMLLSAASLAFFAMSGSAQYAAY, for which the AmyQ secretion efficiency came out at 6.56.

The sequence MKKRLIAPMLLSAASLAFFAMSGSCQAAAY registered an AmyQ secretion efficiency of 2.58.

In turn, MKKRLIAPMLLSAASLAFFAMSGSDQAAAY returned an AmyQ secretion efficiency of 4.18.

In turn, MKKRLIAPMLLSAASLAFFAMSGSEQAAAY had an AmyQ secretion efficiency of 3.75.

The sequence MKKRLIAPMLLSAASLAFFAMSGSFQAAAY showed an AmyQ secretion efficiency of 7.38.

MKKRLIAPMLLSAASLAFFAMSGSGAQAAAY gave an AmyQ secretion efficiency of 3.78.

For the sequence MKKRLIAPMLLSAASLAFFAMSGSGQAAAY, the AmyQ secretion efficiency was determined as 5.16.

Turning to MKKRLIAPMLLSAASLAFFAMSGSHQAAAY, the AmyQ secretion efficiency was 5.04.

MKKRLIAPMLLSAASLAFFAMSGSIQAAAY yielded an AmyQ secretion efficiency of 6.12.

MKKRLIAPMLLSAASLAFFAMSGSKQAAAY had an AmyQ secretion efficiency of 3.82.

MKKRLIAPMLLSAASLAFFAMSGSLQAAAY: the AmyQ secretion efficiency is 5.33.

Turning to MKKRLIAPMLLSAASLAFFAMSGSMQAAAY, the AmyQ secretion efficiency was 5.75.

Consider MKKRLIAPMLLSAASLAFFAMSGSNQAAAY, for which the AmyQ secretion efficiency worked out at 3.88.

In the case of MKKRLIAPMLLSAASLAFFAMSGSPQAAAY, the AmyQ secretion efficiency was determined as 5.7.

MKKRLIAPMLLSAASLAFFAMSGSQQAAAY: the AmyQ secretion efficiency came out at 4.52.

In turn, MKKRLIAPMLLSAASLAFFAMSGSRQAAAY displayed an AmyQ secretion efficiency of 6.03.

Turning to MKKRLIAPMLLSAASLAFFAMSGSSGAAGPSPAAQAAAY, the AmyQ secretion efficiency turned out to be 4.83.

MKKRLIAPMLLSAASLAFFAMSGSSQAAAY came in with an AmyQ secretion efficiency of 4.08.

With MKKRLIAPMLLSAASLAFFAMSGSSVTAGAQAAAY, the AmyQ secretion efficiency was determined as 6.18.

In turn, MKKRLIAPMLLSAASLAFFAMSGSTQAAAY came in with an AmyQ secretion efficiency of 3.66.

On to MKKRLIAPMLLSAASLAFFAMSGSVQAAAY, for which the AmyQ secretion efficiency was found to be 4.49.

MKKRLIAPMLLSAASLAFFAMSGSYQAAAY came in with an AmyQ secretion efficiency of 6.45.

In the case of MKKRLIAPMLLSAASLAFFAMVAVIAQAAAY, the AmyQ secretion efficiency was 5.95.
